Patent US20050164933A1 (NONO, published 2005)

B1: GST-PAR3 PDZ domain 3 fusion protein (other, not shown: a dimerising Fc or GST; small tags and cut ends)
chain: PREFLTFEVPLNDSGSAGLGVSVKGNRSKENHADLGIFVKSIINGGAASKDGRLRVNDQLIAVNGESLLGKTNQDAMETLRRSMSTEGNKRGMIQLIVASRISKCNELKSNSS
notes: also called PAR3 d3 (278.1); PAR3 d3
B2: GST-ZO-1 PDZ domain 2 fusion protein (other, not shown: a dimerising Fc or GST; small tags and cut ends)
chain: ISSQPAKPTKVTLVKSRKNEEYGLRLASHIFVKEISQDSLAARDGNIQEGDVVLKINGTVTENMSLTDAKTLIERSKGKLKMVVQRDRATLLNSS
notes: also called ZO-1 d2 (241.3); ZO-1 d2
B3: GST-RIM2 PDZ domain 1 fusion protein (other, not shown: a dimerising Fc or GST; small tags and cut ends)
chain: TLNEEHSHSDKHPVTWQPSKDGDRLIGRILLNKRLKDGSVPRDSGAMLGLKVVGGKMTESGRLCAFITKVKKGSLADTVGHLRPGDEVLEWNGRLLQGATFEEVYNIILESKPEPQVELVVSRPIG
notes: also called RIM-2 d1; RIM2 (177.4)

What follows are binders tested against … (assay: G assay).

Q: Does B1 bind?
A: Result: binds

Q: Does B2 bind?
A: Result: binds

Q: Does B3 bind?
A: Result: binds
